T1: caspase-12Δ (Gly95-Asn419 of caspase-12L, with an artificial initiation codon), [35S]-labeled
T1 chain: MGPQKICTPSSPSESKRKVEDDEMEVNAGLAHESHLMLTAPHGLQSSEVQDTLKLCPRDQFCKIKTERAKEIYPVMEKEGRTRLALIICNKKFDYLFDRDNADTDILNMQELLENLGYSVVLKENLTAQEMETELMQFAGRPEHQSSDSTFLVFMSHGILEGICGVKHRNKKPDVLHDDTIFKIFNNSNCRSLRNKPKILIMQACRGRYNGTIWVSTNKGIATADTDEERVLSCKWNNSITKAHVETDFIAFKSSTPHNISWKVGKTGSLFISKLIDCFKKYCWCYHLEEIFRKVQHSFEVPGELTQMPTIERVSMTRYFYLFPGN

T2: pro-caspase-12 (caspase-12L, full-length precursor, 419 residues, 48 kDa)
T2 chain: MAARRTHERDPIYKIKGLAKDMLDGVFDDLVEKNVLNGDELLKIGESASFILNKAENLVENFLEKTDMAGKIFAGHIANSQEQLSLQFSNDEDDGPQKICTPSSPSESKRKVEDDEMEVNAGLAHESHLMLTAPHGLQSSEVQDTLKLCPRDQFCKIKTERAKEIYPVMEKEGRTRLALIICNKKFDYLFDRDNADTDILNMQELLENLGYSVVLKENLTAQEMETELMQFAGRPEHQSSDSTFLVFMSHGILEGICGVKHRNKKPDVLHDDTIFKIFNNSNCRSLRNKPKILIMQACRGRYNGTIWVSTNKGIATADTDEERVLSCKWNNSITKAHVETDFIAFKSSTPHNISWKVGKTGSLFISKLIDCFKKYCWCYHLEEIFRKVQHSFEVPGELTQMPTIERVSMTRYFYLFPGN

T3: pro-caspase-2 ([35S]-labeled)
T3 sequence (P42575 2-452, species assumed, looked up): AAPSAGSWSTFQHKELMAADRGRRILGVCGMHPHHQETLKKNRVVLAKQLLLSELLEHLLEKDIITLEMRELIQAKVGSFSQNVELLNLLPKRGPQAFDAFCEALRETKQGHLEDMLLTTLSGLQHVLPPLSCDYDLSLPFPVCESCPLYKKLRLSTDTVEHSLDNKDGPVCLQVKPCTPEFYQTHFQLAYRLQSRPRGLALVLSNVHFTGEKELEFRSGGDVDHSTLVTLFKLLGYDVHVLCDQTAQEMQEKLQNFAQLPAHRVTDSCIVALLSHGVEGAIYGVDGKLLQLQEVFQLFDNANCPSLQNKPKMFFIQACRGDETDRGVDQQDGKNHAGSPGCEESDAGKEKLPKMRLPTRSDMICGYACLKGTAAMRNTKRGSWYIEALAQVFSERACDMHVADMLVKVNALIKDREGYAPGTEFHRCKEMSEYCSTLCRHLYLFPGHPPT

T4: pro-caspase-3 ([35S]-labeled)
T4 sequence (P42574 1-277, species assumed, looked up): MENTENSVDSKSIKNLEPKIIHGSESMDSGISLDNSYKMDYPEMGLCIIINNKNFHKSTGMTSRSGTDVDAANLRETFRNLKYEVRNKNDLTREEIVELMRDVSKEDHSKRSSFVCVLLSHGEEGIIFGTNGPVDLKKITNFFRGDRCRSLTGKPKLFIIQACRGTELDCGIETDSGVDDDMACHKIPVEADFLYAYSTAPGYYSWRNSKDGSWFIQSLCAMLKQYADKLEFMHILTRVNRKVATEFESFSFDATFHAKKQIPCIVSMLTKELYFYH

T5: caspase-12 (Mus musculus, UniProt O08736)
T5 sequence (O08736 1-419): T2 chain

B1: His-tagged caspase-12Δ2 (residues 145-419 of caspase-12L), partially purified from E. coli, autoprocessed into p24 and p10 (protein)
chain 1: TLKLCPRDQFCKIKTERAKEIYPVMEKEGRTRLALIICNKKFDYLFDRDNADTDILNMQELLENLGYSVVLKENLTAQEMETELMQFAGRPEHQSSDSTFLVFMSHGILEGICGVKHRNKKPDVLHDDTIFKIFNNSNCRSLRNKPKILIMQACRGRYNGTIWVSTNKGIATAD
chain 2: TDEERVLSCKWNNSITKAHVETDFIAFKSSTPHNISWKVGKTGSLFISKLIDCFKKYCWCYHLEEIFRKVQHSFEVPGELTQMPTIERVSMTRYFYLFPGN
B2: baculovirus p35: virus inhibitor for the caspase family (protein, UniProt P08160 1-299, looked up)
Early 35 kDa protein: MCVIFPVEIDVSQTIIRDCQVDKQTRELVYINKIMNTQLTKPVLMMFNISGPIRSVTRKNNNLRDRIKSKVDEQFDQLERDYSDQMDGFHDSIKYFKDEHYSVSCQNGSVLKSKFAKILKSHDYTDKKSIEAYEKYCLPKLVDERNDYYVAVCVLKPGFENGSNQVLSFEYNPIGNKVIVPFAHEINDTGLYEYDVVAYVDSVQFDGEQFEEFVQSLILPSSFKNSEKVLYYNEASKNKSMIYKALEFTTESSWGKSEKYNWKIFCNGFIYDKKSKVLYVKLHNVTSALNKNVILNTIK

Assays:
[1] = target: T1, caspase-12Δ (Gly95-Asn419 of …)
[2] = target: poly(ADP-ribose) polymerase
[3] = target: T2, pro-caspase-12 (caspase-12L, …)
[4] = target: T3, pro-caspase-2 ([35S]-labeled)
[5] = target: T4, pro-caspase-3 ([35S]-labeled)
caspase-12 = target: T5, caspase-12; assay: Suppression of cell-killing activity of caspase-12 by baculovirus p35; type: cell-based; details: unpublished data

Chain of pro-ICE ([35S]-labeled) (P29466 whole entry, the tested form may be a part): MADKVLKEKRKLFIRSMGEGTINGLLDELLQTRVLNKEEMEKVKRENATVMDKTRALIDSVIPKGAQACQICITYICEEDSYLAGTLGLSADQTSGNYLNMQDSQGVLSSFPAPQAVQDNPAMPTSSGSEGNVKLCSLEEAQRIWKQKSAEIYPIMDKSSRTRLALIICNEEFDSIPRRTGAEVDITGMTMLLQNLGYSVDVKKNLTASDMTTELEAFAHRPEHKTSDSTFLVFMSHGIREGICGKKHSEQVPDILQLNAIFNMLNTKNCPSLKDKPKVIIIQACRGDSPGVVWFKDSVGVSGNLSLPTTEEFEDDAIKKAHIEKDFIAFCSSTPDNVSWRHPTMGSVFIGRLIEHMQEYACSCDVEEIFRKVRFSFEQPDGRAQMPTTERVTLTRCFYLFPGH
Chain of pro-IL-1β (P01584 whole entry, the tested form may be a part): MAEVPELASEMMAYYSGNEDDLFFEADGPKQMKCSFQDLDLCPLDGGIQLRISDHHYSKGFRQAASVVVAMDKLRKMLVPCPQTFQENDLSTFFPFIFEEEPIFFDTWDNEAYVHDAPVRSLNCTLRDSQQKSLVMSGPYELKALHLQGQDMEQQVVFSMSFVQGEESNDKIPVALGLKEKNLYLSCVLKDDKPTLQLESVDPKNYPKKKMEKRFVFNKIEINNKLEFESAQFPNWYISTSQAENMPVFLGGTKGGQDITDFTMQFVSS

Molecule | in vitro cleavage of [35S]-labeled protein by the partially purified protease [1] | in vitro cleavage by the purified protease [2] | in vitro cleavage of [35S]-labeled pro-enzyme by the partially purified protease (pro-ICE ([35S]-labeled)) | in vitro cleavage by the purified protease (pro-IL-1β) | in vitro cleavage of [35S]-labeled pro-enzyme by the partially purified protease [3] | in vitro cleavage of [35S]-labeled pro-enzyme by the partially purified protease [4] | in vitro cleavage of [35S]-labeled pro-enzyme by the partially purified protease [5] | suppression of cell-killing activity of caspase-12 (caspase-12)
B1 | the 38 kDa polypeptide was cleaved into 26 kDa and 13 kDa fragments | showed little activity for cleavage of pro-IL-1β and poly(ADP-ribose) polymerase | only faint bands of cleavage products were visible | showed little activity for cleavage of pro-IL-1β and poly(ADP-ribose) polymerase | can efficiently process pro-caspase-12 (48 kDa) into fragments | only faint bands of cleavage products were visible | only faint bands of cleavage products were visible | –
B2 | – | – | – | – | – | – | – | could not efficiently suppress

Reference: patent US6642368B1, “Programmed cell death and caspase-12” (The General Hospital Corporation, priority 1998, dated 2003)
